According to patent US20150322163A1 (OREGON HEALTH AND SCIENCE UNIVERSITY, published 2015):

How the values were obtained:
human factor XI = target: T1, human factor XI (human, UniProt P03951 19-625); test: Western blot of plasma
T1 construct: Disulfide-bonded homodimer of about 160 kDa; also called FXI; human FXI

baboon factor XI = baboon factor XI (baboon (Papio anubis)); test: cell-based or functional assay
Prekallikrein (PK) = Prekallikrein (PK) (UniProt P03952 20-638, limits assumed); test: Western blot
Prekallikrein (PK), sequence (P03952 20-638 limits assumed): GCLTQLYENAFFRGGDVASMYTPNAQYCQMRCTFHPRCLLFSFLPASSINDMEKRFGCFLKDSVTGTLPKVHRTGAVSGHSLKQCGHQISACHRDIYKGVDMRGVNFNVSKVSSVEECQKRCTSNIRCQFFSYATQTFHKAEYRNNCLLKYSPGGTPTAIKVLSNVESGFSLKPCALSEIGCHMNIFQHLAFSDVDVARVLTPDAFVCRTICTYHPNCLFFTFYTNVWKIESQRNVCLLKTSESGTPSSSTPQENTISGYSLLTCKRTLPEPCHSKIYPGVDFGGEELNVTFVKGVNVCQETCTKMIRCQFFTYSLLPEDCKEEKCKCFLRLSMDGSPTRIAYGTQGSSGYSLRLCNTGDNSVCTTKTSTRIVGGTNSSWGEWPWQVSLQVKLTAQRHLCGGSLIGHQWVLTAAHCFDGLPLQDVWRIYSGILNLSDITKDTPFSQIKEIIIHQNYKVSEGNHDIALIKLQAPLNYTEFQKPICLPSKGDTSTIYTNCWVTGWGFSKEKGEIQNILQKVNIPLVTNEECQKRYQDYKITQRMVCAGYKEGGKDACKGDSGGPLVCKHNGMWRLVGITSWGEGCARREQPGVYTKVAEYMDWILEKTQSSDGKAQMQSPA

T1 sequence (P03951 19-625 I95Y limits assumed): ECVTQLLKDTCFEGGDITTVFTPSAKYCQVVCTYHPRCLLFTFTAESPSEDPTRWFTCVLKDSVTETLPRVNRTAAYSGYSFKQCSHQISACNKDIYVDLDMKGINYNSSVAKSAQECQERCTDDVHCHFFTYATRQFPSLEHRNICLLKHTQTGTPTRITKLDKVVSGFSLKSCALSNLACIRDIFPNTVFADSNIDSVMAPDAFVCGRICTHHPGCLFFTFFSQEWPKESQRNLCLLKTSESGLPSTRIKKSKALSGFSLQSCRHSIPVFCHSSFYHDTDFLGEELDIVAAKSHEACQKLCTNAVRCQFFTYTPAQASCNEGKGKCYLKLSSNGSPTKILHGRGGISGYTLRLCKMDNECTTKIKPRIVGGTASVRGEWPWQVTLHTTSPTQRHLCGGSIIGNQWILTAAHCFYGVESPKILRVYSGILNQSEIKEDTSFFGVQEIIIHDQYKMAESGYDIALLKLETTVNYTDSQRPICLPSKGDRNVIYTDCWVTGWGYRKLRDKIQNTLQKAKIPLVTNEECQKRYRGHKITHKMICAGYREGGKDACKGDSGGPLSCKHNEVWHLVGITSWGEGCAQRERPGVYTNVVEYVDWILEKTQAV

binding result (human factor XI): binds | IC50 in a clotting assay using FXI deficient human plasma with serial dilutions of NBP as standards (baboon factor XI): 2.5 nM | binding result (Prekallikrein (PK)): no binding
B1: anti-factor XI monoclonal antibody 1A6 (aXIMab) (antibody, V domains shown)
VH: QVTLKESGPGILKPSQTLSLTCSFSGFSLSTSGMGVGWIRQPSGKGLEWLAHIWWDDDKYYNPSLKSQLTISKDTSRNQVFLKITSVDAADTATYYCARKRSSVVAHYYAMDYWGQGTSVTVSS
VL: DIVLTQSPASLAVSLGQRATISCKASQSVDYDGDSYLNWYQQKPGQPPKLLIYAASNLESGIPARFSGSGSGTDFTLNIHPVEEEDAATYYCQQSNGDPWTFGGGTKLEIK
notes: also called anti-FXI monoclonal antibody
